In the supplement of paper PMC10567573 one finds protein stability index data, which are given here for 72 sequences.

The nature of this data set: protein stability index of a GFP-peptide fusion (GPS, HEK-293T) (PSI 1-6); higher = more stable.
Setting [1] is: treatment: DMSO, c terminus: a fixed tail appended.
Where [2] appears, read: treatment: MLN4924 1 uM, 8 h, c terminus: a fixed tail appended.
Setting [3] is: treatment: DMSO, c terminus: native.
Where [4] appears, read: treatment: MLN4924 1 uM, 8 h, c terminus: native.

± gives the standard deviation.
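Note: 24-mer peptide tiles fused after GFP, lentivirally expressed, FACS-sorted into six equal bins by GFP/DsRed ratio, decoded by Illumina sequencing, PSI is the read-weighted mean bin number.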

In the case of SKAAAGKMNLYESFAQATQLGDLH [INTS3], the protein stability index is 3.63 ± 0.25 under setting [1] and 3.58 ± 0.23 under setting [2].
The matching figures for LHLLYLLEKVECTPSQEHLKHQTV [FEM1A]: 2.29 ± 0.43 and 2.23 ± 0.26.
The matching figures for DSGFLGLRPTSVDPALRRRRRGPR [NOP53]: 5.15 ± 0.4 and 5.17 ± 0.25.
Consider KRGGNCPAPAPLVPQDPDLEEEEE [ZBTB22], for which the protein stability index was found to be 5.56 ± 0.26 under setting [1] and 5.59 ± 0.21 under setting [2].
The matching figures for TREQLYQAIFHAVDQYLALPDVSL [MCOLN1]: 3.37 ± 0.54 and 2.67 ± 0.61.
As for EPPQDSHSRKTVLIKTIETRNGEV [PRPH], the protein stability index is, setting by setting: under setting [1], 4.67 ± 0.28; under setting [2], 4.79 ± 0.4.
The matching figures for LQVRGYPEEKKEEEGSANRRPEDQ [CHGA]: 5.61 ± 0.21 and 5.7 ± 0.25.
The matching figures for DCSGLVLLCLFFGIPWEAGARQIS [PCDHGA10]: 3.45 ± 0.4 and 3.19 ± 0.2.
Take RDHIPRGKEELESLGGGKTPPGR [MOG]: the protein stability index by setting is: under setting [3], 3.87 ± 0.1; under setting [4], 4.09 ± 0.42.
For VQEVMEEEWNALQSVENCPEDLAQ [RPAIN], the protein stability index worked out at 5.51 ± 0.21 under setting [1] and 5.48 ± 0.089 under setting [2].
The matching figures for AAGELESMGFSARYNFTPDPDFKD [NETO1]: 4.71 ± 0.2 and 4.61 ± 0.18.
The matching figures for AMVWALDLDDFAGFSCNQGRYPLI [CHIT1]: 2.5 ± 0.56 and 2.65 ± 0.63.
The matching figures for CSGTELSLAHCRHDGEDVACPQGG [LOXL2]: 4.78 ± 0.73 and 4.3 ± 0.24.
Turning to LPREPGDSAQFTKALAIILHLLYL [FEM1A], the protein stability index is, setting by setting: under setting [1], 2.16 ± 0.12; under setting [2], 2.23 ± 0.12.
The matching figures for QEAFLVQEVVELPVTERQIEREHL [TBC1D10A]: 4.94 ± 0.25 and 4.71 ± 0.23.
The matching figures for MHGNEALGRELMLQLSEFLCEEFR [CPN1]: 2.24 ± 0.49 and 2.67 ± 0.22.
The matching figures for TVVSVRGFEESEPLTGFLTTVPDG [TNXB]: 3.92 ± 0.25 and 3.78 ± 0.41.
Take PCQKSPNGVRVFPPAMPPPATHLS [TRIM9]: the protein stability index under setting [1] is 3.63 ± 0.31 and the protein stability index under setting [2] came out at 3.78 ± 0.15.
With LDKNKIPYKGFIPEDLEAFIELH [FEM1A], the protein stability index reads like this: under setting [3], 3.1 ± 0.29; under setting [4], 3.06 ± 0.27.
As to EDTQRHETYHQQGQCQVLVQRSPW [TCAP], the protein stability index runs as follows: under setting [1], 4.03 ± 0.29; under setting [2], 3.79 ± 0.17.
Consider IVNQWSEKFSDEGDSDSALDSVSP [DLC1], for which the protein stability index reads like this: under setting [1], 5.32 ± 0.18; under setting [2], 5.24 ± 0.23.
The matching figures for SCRELLRIADKFTQHNFQEVMESE [KLHL20]: 2.17 ± 0.14 and 2.19 ± 0.06.
The matching figures for HITKLKPWSLFDVLVEKYGWPHED [SRPK2]: 2.23 ± 0.33 and 2.38 ± 0.11.
AAAEVGGGVGGSSRARSASSPRGM [ANKRD17]: the protein stability index reads like this: under setting [1], 4.82 ± 0.34; under setting [2], 5 ± 0.24.
The matching figures for AYMDRRDHPLPEVAHVKHLSASQK [COX4I1]: 4.34 ± 0.32 and 4.6 ± 0.32.
The matching figures for ARHLREYQELLNVKMALDIEIATY [PRPH]: 2.34 ± 0.4 and 2.4 ± 0.37.
The matching figures for KLRFNRKKKGMYRKAITEAANAAR [PWWP2B]: 3.42 ± 0.23 and 3.29 ± 0.2.
Turning to INRCSVLRQLGCKDGKNWNSNQAT [SPOPL], the protein stability index was 2.65 ± 0.28 under setting [1] and 2.78 ± 0.28 under setting [2].
The matching figures for VAIAQKFAALRASLVAPLLLELAG [MYORG]: 2.9 ± 0.76 and 2.68 ± 1.1.
The matching figures for KSGEEAVTVLEDLEKGLEPEPQVP [ZNF232]: 5.63 ± 0.17 and 5.62 ± 0.16.
The matching figures for KQMSFLEKRGCPRTALEYCKLILS [TCF25]: 3.12 ± 1 and 3.02 ± 0.2.
Take GEATAAPAPLCGGPSAEAYLLHPA [TBX6]: the protein stability index runs as follows: under setting [1], 4.17 ± 0.22; under setting [2], 4.47 ± 0.13.
As for QSVENCPEDLAQLEELIDMAVLEE [RPAIN], the protein stability index stood at 5.27 ± 0.15 under setting [1] and 5.27 ± 0.21 under setting [2].
The matching figures for MSPSMLTRNSPRGCRLPSISSTTC [SPATS1]: 2.97 ± 0.18 and 3.03 ± 0.2.
The matching figures for YPPFWDEDQHRLYQQIKAGAYDFP [CAMK2D]: 2.56 ± 0.21 and 2.64 ± 0.25.
For the sequence VNDKRRKKSGEKEQHISKCKKAFR [KMT2E], the protein stability index reads like this: under setting [1], 3.76 ± 0.14; under setting [2], 3.86 ± 0.27.
The matching figures for GIVESIQIMKEGKATASEAVDCKW [NETO1]: 3.71 ± 1.3 and 3.99 ± 0.2.
The matching figures for ATTASPAKVDSSGVIDLFGDAFGS [SNAP91]: 4.06 ± 0.2 and 4.42 ± 0.15.
The matching figures for EFKRLASSKAHTSRFISANLPCNK [PTPRD]: 2.88 ± 0.1 and 2.97 ± 0.41.
Consider TLCAVLERDTLSIRESRLFGAVVR [BTBD1], for which the protein stability index is, setting by setting: under setting [1], 2.4 ± 0.38; under setting [2], 2.22 ± 0.56.
The matching figures for SPSKSFWTRITCAEEGWSPTPKCL [CFHR2]: 2.17 ± 0.22 and 2.47 ± 0.33.
The matching figures for SYKIEEISPSTLKNSLFPSPISSI [KCNK9]: 2.6 ± 0.21 and 2.7 ± 0.33.
The matching figures for VPLARSLQISEELLSRNQLSTAAS [LCOR]: 3.67 ± 0.097 and 3.73 ± 0.076.
The sequence DVLKYSYVRLVCKDVRAPSRPAVG [ZSWIM9] gave a protein stability index under setting [1] of 2.25 ± 0.26 and a protein stability index under setting [2] of 1.83 ± 0.22.
The matching figures for SHSNITGIVEVILGETKAYVFFEK [TRIB1]: 2.41 ± 1 and 1.9 ± 0.58.
The matching figures for PLTSTQGLEHAAAGGSSGTTARER [FBF1]: 5.36 ± 0.24 and 5.33 ± 0.3.
The matching figures for GMVTRCIIEVLSNALSKSSAPPIT [CHGB]: 3.07 ± 0.29 and 3.08 ± 0.23.
With EQQRCLLLARLRELEQQIWKERDE [TRIM15], the protein stability index is, setting by setting: under setting [1], 3.03 ± 0.28; under setting [2], 3.29 ± 0.36.
The matching figures for AKKEDKVPVKKQKTRTVFSSTQLC [NANOGP8]: 4.2 ± 0.1 and 4.19 ± 0.12.
LASRNTLFNLSNFLDKSGSHGYDM [SNAP91]: the protein stability index is, setting by setting: under setting [1], 2.2 ± 0.26; under setting [2], 2.61 ± 0.16.
As to TWHHTKPLLPSDLRRTGCAALRIA [GAN], the protein stability index runs as follows: under setting [1], 2.45 ± 0.33; under setting [2], 2.48 ± 0.24.
The matching figures for RVDFEEFVELIGPKLREETAHMLG [CABP4]: 2.58 ± 0.25 and 2.73 ± 0.39.
The matching figures for NACATKEQKNHTFPRLNRNKYMVT [PLD5]: 3.63 ± 0.3 and 3.77 ± 0.41.
The matching figures for GNDFTQNAGTGLVINQADVRNNRS [PLD5]: 4.58 ± 0.35 and 4.55 ± 0.35.
For VVAAVGKELIIFRLVAPTEGSLEW [WDR41], the protein stability index was determined as 2.3 ± 0.21 under setting [1] and 2.37 ± 0.28 under setting [2].
The matching figures for HCPDCGQQWFPSLELGHWLYQTEL [TOR1AIP2]: 2.31 ± 0.57 and 2.52 ± 0.41.
The matching figures for RVSNPGRLAELLLLETDAGPAASE [GADD45A]: 4.46 ± 0.28 and 4.28 ± 0.26.
The matching figures for CMVGYDMGATRCDFTLSKTNMARI [CPXM2]: 2.24 ± 0.6 and 2.1 ± 0.22.
Regarding MEDEMPKTLYVGNLSRDVTEALIL [TIA1], the protein stability index was 2.41 ± 0.36 under setting [1] and 2.63 ± 0.28 under setting [2].
The matching figures for EVTDKEQEFAARAAKQLEYQQLED [EPB41L3]: 5.65 ± 0.27 and 5.62 ± 0.33.
Turning to AAASAKDIYYNNMEEVCGGEKPYL [ATL3], the protein stability index runs as follows: under setting [1], 4.21 ± 0.25; under setting [2], 4.01 ± 0.069.
Turning to MISTYEFGKSFFQRLNQDRLLGG [SLC25A39], the protein stability index is 3.21 ± 0.83 under setting [3] and 2.44 ± 0.27 under setting [4].
With PPGAEEPQAPPASRDEAALPELLL [RETREG3], the protein stability index under setting [1] came out at 5.25 ± 0.31 and the protein stability index under setting [2] is 5.39 ± 0.17.
As to SMENANQENEEKEQVANKGEPLAL [BEX1], the protein stability index amounted to 5 ± 0.26 under setting [1] and 5.11 ± 0.22 under setting [2].
The matching figures for LCYPPAKGCLKLCRRCYDWIHRPG [SPRY1]: 2.06 ± 0.094 and 2.27 ± 0.33.
The matching figures for VDDKFGTGTKKVTRILDGGNPFLD [PSD2]: 4.18 ± 0.051 and 4.23 ± 0.25.
The matching figures for HCRKCGQAVCGKCSSKRSSYPVMG [WDFY1]: 3.88 ± 0.3 and 3.91 ± 0.34.
In the case of IHSIALSTFASLIGPFGGFFASGF [CDS2], the protein stability index runs as follows: under setting [1], 3.12 ± 0.2; under setting [2], 2.99 ± 0.16.
The matching figures for PLLCPSYQSYFKTIEELQQKILCS [KRT33B]: 2.56 ± 0.3 and 2.56 ± 0.17.
The matching figures for MSVNVNRSVSDQFYRYKMPRLIAK [EIF5]: 2.52 ± 0.14 and 2.77 ± 0.29.
The matching figures for KSYIFEGALGMSNRDSYFYAAIVA [VMA21]: 2.96 ± 0.66 and 2.6 ± 0.46.
With INQPLPDLKNVKSKIGSTDNIKYQ [MAP2], the protein stability index came to 4.29 ± 0.17 under setting [1] and 4.47 ± 0.16 under setting [2].
